From publication PMC4369838

Biological target: Synthetic Aβ(1–42), prepared as amyloid-beta-derived diffusible ligands (ADDLs) (human)
Assay: SEC; analytical SEC of the ADDL preparation (Superdex 75 5/150, PBS, pH 7.4); oligomer peak area divided by oligomer plus monomer peak area; three separate experiments

Synthetic Aβ(1–42), prepared as amyloid-beta-derived diffusible ligands (ADDLs) (peptide)
percent of total Aβ in species larger than monomers: 47%
